According to IntAct's records for PubMed 19804756:

B1: DNA endonuclease ctp1 (Schizosaccharomyces pombe (strain ATCC 38366 / 972)), O74986 (parent)
chain: MNEEEHNKSVHWSIVYRQLGNLLEQYEVEIARLKSQLVLEKKLRIQVEKELESVKTKQISSSASSKVSSNTIQELDSTTDEDEIPGSDTVDEEDPSLNAPFSEKNQSVKIPPHSPTLPVQNASAFVKPISVPLGNVKEEKFLDTNPIGAESFESSDGEMHLRARSPEDMILLRETQPLAPLDINTLGVSDNRQKKGTEKKRPFEPEFLNDDVIRGNKRKALPAYECPDCQKFYELHGPVKESSVAPTWNDENRLGGGSLPNCKHQPLVQKVGRHRKLNIPKPIPNGFWESDFVD
partner: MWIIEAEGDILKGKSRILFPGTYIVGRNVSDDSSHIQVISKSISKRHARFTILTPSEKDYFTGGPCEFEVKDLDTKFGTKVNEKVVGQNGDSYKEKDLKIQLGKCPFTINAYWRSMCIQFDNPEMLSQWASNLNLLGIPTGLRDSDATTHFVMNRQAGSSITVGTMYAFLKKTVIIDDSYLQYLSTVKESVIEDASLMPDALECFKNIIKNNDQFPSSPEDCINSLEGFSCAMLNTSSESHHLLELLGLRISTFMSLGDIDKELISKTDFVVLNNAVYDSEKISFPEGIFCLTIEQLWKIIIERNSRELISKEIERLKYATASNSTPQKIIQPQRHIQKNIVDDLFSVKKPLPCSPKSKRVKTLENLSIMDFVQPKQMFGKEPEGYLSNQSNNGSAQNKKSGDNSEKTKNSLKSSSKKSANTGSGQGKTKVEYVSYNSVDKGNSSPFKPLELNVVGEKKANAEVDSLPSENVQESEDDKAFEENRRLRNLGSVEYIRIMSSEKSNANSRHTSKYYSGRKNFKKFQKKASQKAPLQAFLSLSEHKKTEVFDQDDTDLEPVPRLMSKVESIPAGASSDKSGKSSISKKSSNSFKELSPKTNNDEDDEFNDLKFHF
B2: DNA repair and telomere maintenance protein nbs1 (Schizosaccharomyces pombe (strain ATCC 38366 / 972)), O43070 (parent)
chain: B1 partner
B3: Nibrin (Homo sapiens), O60934 (parent)
chain: MWKLLPAAGPAGGEPYRLLTGVEYVVGRKNCAILIENDQSISRNHAVLTANFSVTNLSQTDEIPVLTLKDNSKYGTFVNEEKMQNGFSRTLKSGDGITFGVFGSKFRIEYEPLVACSSCLDVSGKTALNQAILQLGGFTVNNWTEECTHLVMVSVKVTIKTICALICGRPIVKPEYFTEFLKAVESKKQPPQIESFYPPLDEPSIGSKNVDLSGRQERKQIFKGKTFIFLNAKQHKKLSSAVVFGGGEARLITEENEEEHNFFLAPGTCVVDTGITNSQTLIPDCQKKWIQSIMDMLQRQGLRPIPEAEIGLAVIFMTTKNYCDPQGHPSTGLKTTTPGPSLSQGVSVDEKLMPSAPVNTTTYVADTESEQADTWDLSERPKEIKVSKMEQKFRMLSQDAPTVKESCKTSSNNNSMVSNTLAKMRIPNYQLSPTKLPSINKSKDRASQQQQTNSIRNYFQPSTKKRERDEENQEMSSCKSARIETSCSLLEQTQPATPSLWKNKEQHLSENEPVDTNSDNNLFTDTDLKSIVKNSASKSHAAEKLRSNKKREMDDVAIEDEVLEQLFKDTKPELEIDVKVQKQEEDVNVRKRPRMDIETNDTFSDEAVPESSKISQENEIGKKRELKEDSLWSAKEISNNDKLQDDSEMLPKKLLLTEFRSLVIKNSTSRNPSGINDDYGQLKNFKKFKKVTYPGAGKLPHIIGGSDLIAHHARKNTELEEWLRQEMEVQNQHAKEESLADDLFRYNPYLKRRR

Variants of: B1
Conditions: with nbs1_schpo nbs1, O43070

Variant	effect of a mutation on the interaction
MNEEEHNKSVHWSIVYRQLGNLLEQYEVEIARLKSQLVLEKKLRIQVEKELESVKTKQISSSASSKVSSNTIQELASTTDEDEIPGSDTVDEEDPSLNAPFSEKNQSVKIPPHSPTLPVQNASAFVKPISVPLGNVKEEKFLDTNPIGAESFESSDGEMHLRARSPEDMILLRETQPLAPLDINTLGVSDNRQKKGTEKKRPFEPEFLNDDVIRGNKRKALPAYECPDCQKFYELHGPVKESSVAPTWNDENRLGGGSLPNCKHQPLVQKVGRHRKLNIPKPIPNGFWESDFVD [D76A]	increasing interaction

Variants of: B2
Conditions: with mdc1_human MDC1, Q14676
Target sequence in this assay (Q14676 whole entry): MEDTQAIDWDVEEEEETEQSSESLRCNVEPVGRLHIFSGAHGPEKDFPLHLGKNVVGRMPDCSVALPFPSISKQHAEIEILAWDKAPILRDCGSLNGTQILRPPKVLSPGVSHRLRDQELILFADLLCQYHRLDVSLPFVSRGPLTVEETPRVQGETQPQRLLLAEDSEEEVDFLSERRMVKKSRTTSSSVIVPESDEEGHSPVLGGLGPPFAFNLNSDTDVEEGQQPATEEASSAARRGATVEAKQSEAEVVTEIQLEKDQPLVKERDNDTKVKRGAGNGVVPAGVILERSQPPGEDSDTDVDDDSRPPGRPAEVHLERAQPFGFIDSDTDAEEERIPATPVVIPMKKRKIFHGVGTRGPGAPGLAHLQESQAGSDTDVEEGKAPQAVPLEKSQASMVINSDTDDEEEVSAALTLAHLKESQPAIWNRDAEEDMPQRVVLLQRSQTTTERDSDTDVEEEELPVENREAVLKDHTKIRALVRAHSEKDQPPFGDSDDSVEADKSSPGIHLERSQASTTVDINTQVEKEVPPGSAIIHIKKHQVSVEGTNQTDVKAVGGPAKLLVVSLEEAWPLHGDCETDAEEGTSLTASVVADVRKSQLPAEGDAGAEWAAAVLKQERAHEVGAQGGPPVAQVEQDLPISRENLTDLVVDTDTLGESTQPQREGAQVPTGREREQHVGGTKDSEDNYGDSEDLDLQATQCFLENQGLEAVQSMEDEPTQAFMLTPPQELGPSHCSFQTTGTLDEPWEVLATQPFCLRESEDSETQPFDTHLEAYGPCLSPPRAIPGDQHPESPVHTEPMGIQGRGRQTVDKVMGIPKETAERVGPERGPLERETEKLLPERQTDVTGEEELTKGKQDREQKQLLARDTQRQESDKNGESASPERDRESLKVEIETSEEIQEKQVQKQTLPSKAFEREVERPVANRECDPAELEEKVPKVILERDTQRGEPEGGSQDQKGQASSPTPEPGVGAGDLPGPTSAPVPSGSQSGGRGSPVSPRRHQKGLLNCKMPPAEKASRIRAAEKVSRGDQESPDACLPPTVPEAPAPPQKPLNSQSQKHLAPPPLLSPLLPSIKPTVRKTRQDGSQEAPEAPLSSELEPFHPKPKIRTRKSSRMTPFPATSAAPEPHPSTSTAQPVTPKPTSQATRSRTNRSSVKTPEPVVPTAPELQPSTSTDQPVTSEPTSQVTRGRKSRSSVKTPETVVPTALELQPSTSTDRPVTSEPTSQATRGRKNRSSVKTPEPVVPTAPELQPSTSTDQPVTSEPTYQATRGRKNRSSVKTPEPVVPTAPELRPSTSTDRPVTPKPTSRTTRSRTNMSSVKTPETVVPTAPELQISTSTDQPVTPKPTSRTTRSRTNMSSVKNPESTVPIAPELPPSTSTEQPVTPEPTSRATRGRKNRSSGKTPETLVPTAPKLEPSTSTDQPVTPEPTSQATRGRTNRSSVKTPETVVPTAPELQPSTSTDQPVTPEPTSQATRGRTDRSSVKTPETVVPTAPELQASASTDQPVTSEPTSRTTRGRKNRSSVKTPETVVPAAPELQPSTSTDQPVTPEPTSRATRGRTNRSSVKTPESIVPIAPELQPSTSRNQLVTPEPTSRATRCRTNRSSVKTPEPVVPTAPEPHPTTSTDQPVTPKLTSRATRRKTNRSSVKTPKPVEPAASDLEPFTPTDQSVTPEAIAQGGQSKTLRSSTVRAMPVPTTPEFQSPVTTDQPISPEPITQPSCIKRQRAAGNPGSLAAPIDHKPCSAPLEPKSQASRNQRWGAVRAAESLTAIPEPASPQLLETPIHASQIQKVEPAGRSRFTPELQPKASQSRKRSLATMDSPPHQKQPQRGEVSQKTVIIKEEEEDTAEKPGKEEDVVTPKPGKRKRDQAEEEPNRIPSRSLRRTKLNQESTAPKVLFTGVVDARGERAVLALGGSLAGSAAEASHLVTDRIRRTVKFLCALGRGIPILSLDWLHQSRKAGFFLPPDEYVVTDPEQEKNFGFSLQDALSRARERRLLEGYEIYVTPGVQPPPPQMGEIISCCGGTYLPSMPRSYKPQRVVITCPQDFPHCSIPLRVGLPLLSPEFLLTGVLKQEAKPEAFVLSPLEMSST

Variant	effect of a mutation on the interaction
K45A	decreasing interaction
K76A	decreasing interaction
G103D	decreasing interaction

Variants of: B3
Conditions: with mdc1_human MDC1, Q14676
Target sequence in this assay (Q14676 whole entry): as above

Variant	effect of a mutation on the interaction
S42A	decreasing interaction
K160M	decreasing interaction
R28A	decreasing interaction
S42A;K160M	disrupting interaction
